Experimental data published in paper PMC9440770.
Positions count from the first letter of the chain named. Numbers in names are those of the source.

B1: human αX I-domain (residues Q129 to G319), wild type (domain or fragment)
chain: QEQDIVFLIDGSGSISSRNFATMMNFVRAVISQFQRPSTQFSLMQFSNKFQTHFTFEEFRRSSNPLSLLASVHQLQGFTYTATAIQNVVHRLFHASYGARRDAAKILIVITDGKKEGDSLDYKDVIPMADAAGIIRYAIGVGLAFQNRNSWKELNDIASKPSQEHIFKVEDFDALKDIQNQLKEKIFAIEG
B2: human αX I-domain I314G construct (domain or fragment)
chain: B1 chain with I186G

Molecular target: fibrinogen (UniProt P02671)
Sequence of UniProt P02671 (P02671 36-866, chain 1 of 3): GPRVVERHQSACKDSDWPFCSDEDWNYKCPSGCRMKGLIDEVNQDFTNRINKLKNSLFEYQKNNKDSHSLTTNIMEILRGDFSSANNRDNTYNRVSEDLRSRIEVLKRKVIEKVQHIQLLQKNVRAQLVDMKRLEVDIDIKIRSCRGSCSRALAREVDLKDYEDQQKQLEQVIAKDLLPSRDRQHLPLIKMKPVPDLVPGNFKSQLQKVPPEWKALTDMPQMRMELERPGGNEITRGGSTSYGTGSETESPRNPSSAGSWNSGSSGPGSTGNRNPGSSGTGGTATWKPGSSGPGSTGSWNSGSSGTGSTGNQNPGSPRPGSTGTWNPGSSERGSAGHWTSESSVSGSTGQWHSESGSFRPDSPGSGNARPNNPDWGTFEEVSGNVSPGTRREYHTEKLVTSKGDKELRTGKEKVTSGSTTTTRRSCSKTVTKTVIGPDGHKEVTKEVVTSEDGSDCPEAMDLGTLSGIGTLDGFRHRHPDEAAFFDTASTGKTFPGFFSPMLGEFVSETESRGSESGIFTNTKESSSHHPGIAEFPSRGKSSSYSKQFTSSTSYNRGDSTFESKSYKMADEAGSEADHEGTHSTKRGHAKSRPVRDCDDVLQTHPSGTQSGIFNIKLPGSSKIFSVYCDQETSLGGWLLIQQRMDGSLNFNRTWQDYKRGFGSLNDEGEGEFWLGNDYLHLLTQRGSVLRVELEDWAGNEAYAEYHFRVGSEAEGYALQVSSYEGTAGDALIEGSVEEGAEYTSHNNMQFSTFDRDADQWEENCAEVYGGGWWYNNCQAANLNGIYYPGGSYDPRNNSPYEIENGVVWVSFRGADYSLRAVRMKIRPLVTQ
Sequence of UniProt P02671 (P02675 45-491, chain 2 of 3, further chain): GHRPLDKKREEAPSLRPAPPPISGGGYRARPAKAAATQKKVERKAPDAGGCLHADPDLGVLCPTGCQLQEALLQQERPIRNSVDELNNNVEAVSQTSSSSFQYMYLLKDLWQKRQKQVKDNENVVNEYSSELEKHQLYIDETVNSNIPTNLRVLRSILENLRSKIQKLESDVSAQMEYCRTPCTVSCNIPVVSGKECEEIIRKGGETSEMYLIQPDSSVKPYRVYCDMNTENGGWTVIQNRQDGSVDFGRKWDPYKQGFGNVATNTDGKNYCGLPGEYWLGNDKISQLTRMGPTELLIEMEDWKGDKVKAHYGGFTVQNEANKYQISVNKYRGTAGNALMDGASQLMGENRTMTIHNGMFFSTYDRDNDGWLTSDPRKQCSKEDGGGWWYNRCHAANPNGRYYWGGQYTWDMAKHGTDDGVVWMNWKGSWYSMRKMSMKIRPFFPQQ
Sequence of UniProt P02671 (P02679 27-453, chain 3 of 3, further chain): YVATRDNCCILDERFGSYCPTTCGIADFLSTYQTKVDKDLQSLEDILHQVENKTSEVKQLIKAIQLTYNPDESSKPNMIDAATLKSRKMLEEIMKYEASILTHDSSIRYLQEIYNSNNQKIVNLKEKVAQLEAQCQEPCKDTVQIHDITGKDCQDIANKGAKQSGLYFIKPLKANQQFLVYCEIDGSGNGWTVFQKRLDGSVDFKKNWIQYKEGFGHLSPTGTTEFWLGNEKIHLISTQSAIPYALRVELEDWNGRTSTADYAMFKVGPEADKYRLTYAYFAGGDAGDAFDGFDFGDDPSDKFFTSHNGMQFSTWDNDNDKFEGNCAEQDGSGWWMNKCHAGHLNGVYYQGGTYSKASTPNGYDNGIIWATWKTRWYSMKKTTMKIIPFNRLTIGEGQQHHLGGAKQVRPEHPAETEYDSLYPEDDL
Test: SPR

Binder | Kd
B1 | 20 µM
B2 | 100 µM
